Source: publication PMC11190351 (Plant Direct, 2024)

Biological target: the molecule itself
Assay: SEC

B1: Chlamydomonas reinhardtii alpha amylase 2 (AMA2), full-length recombinant enzyme (enzyme, UniProt A0A2K3DGK5 1-706, looked up)
chain: MDRSLLSRTSPRMQLGRPQQLPPPTVPLAQVPRLQRRCVVGSRVCQPVVAVRPGRASAGRGGRLVVSSVDMSNSPLSSMDAGEGLDIMFDNNSDAECTVVTVEGKDKAHLLMSLTGGFSSAGLTVISASITSDDGRVLDVFRVQTADGKKVPEEQFPSVREHILSVTATSSRSSMPAIYGIVAAAEVERLKPLRSQSTQNDVDALELAAAEMTQAVAELVATERDIIRMRASNADARTLQTKEANRTEAAAGLERKMAAMQAVLAARRNLATEPEKPKSPTEKLLETLKPPTPMRAAAGAGSGSGSEILLQAFNWESHRQKLYKQLMGRVKDISDAGFTGVWMPPPSDSVSPQGYLPRDLYSLDSAYGSEAELRELIAAFHQNNIKVIADIVVNHRCANSQGSDGKWNKFGGRLAWDASAICSNNPSFGGRGNPKQGDDYAAAPNIDHSQERIRNDIVQWMKYLRNSIGFDGWRFDFVRGYLGSYCKQYIDETVPAMAFGEYWDSCEYTDGVLNYNQDAHRQRTVNWCDSTGGTSAAFDFTTKGILQEAVGRREYWRLVDSQGRPPGVMGMWPSRAITFIDNHDTGSTLNHWPFPSRNLPEGYAYILTHPGTPCVFYDHFYQEENNLRKIILDLLKVRRRNGLNARSKVVMKKSAADVYAAMIDDKVAVKLGPGDWSPNQSGIKVNGKELKVAASGFQFAVWEGQH
stoichiometry N: 2
